The supplement of paper PMC10724198
± gives the standard deviation of the averaged measurements.

Key:
[1] = test system: Saccharomyces cerevisiae; experiment: protein stability index of tFT-peptide fusion in deletion strain of DAS1 (PSI (0-1 scale)); higher = more stable (slower turnover)
Method: (§1)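 MPS profiling in S. cerevisiae of two library types built from selected 12-aa C-degron peptides (IN1, IN2, LN1, LN3, VN2, R1-R5, W1-W3, Atg1 and Rpa12 C-termini): saturation mutagenesis libraries and C-terminal +1 capping libraries (13 aa). Each peptide is fused to the C-terminus of a sfGFP-mCherry timer, after a GGGS linker. Cells are FACS-sorted into 8 mCherry/sfGFP bins and sequenced. PSI runs from 0 (unstable) to 1 (stable), measured once in wild type and in the das1Δ or doa10Δ background.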

[2] = test system: Saccharomyces cerevisiae; experiment: protein stability index of tFT-peptide fusion in wild type (PSI (0-1 scale)); higher = more stable (slower turnover); settings: genetic background: wild type
Method: as §1

[3] = test system: Saccharomyces cerevisiae; experiment: protein stability index of tFT-peptide fusion (C-terminal peptide) (PSI (0-1 scale)); higher = more stable (slower turnover); settings: temperature: 30 C
Method: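 MPS profiling in S. cerevisiae of the yeast C-terminome library: the last 12 aa of each annotated ORF are fused to the C-terminus of a sfGFP-mCherry timer, after a GGGS linker. Cells are FACS-sorted into 8 mCherry/sfGFP bins and deep-sequenced. PSI runs from 0 (unstable) to 1 (stable); wild type and das1Δ backgrounds, two technical replicates each.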

[4] = genetic background: das1 deletion
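Throughout, for protein stability index of tFT-peptide fusion in deletion strain of DAS1: PSI is a weighted mean of each variant's read distribution over the sorted stability bins, computed only for variants having over 10 reads in total.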
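Throughout, for protein stability index of tFT-peptide fusion in wild type: PSI derived as read-weighted mean over the 8 sorting bins, only variants exceeding 10 total reads kept, mCherry placed adjacent to the peptide and sfGFP distal.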

ADKRNHLIKLLN
protein stability index [1]: 0.587 | protein stability index [2]: 0.129

AKILRQKMNHQN
protein stability index [1]: 0.688 | protein stability index [2]: 0.185

ANWRVGLWRGAS
protein stability index [1]: 0.685 | protein stability index [2]: 0.498

ARDRVGLWRGAS
protein stability index [1]: 0.716 | protein stability index [2]: 0.575

ARKRVGLWRGAS
protein stability index [1]: 0.691 | protein stability index [2]: 0.517

ARMRVGLWRGAS
protein stability index [1]: 0.702 | protein stability index [2]: 0.645

ARSRVGLWRGAS
protein stability index [1]: 0.698 | protein stability index [2]: 0.591

ARVRVGLWRGAS
protein stability index [1]: 0.694 | protein stability index [2]: 0.599

ARWDVGLWRGAS
protein stability index [1]: 0.729 | protein stability index [2]: 0.543

ARWRGGLWRGAS
protein stability index [1]: 0.677 | protein stability index [2]: 0.543

ARWRPGLWRGAS
protein stability index [1]: 0.679 | protein stability index [2]: 0.668

ARWRSGLWRGAS
protein stability index [1]: 0.676 | protein stability index [2]: 0.665

ARWRVGLPRGAS
protein stability index [1]: 0.666 | protein stability index [2]: 0.688

VGELDIKFDLKF [RTF1 C-terminal 12 aa]
protein stability index [3, 4]: 0.733 ± 0.018 | protein stability index ([3]; genetic background: wild type): 0.696 ± 0.0088

VGLDDLKKLVTK [PCF11 C-terminal 12 aa]
protein stability index [3, 4]: 0.713 ± 0.03 | protein stability index ([3]; genetic background: wild type): 0.744 ± 0.099

VIAQIDELFEGY [THG1 C-terminal 12 aa]
protein stability index [3, 4]: 0.726 ± 0.0083 | protein stability index ([3]; genetic background: wild type): 0.711 ± 0.019

VIFLFLRTIHFL [PGC1 C-terminal 12 aa]
protein stability index [3, 4]: 0.501 ± 0.015 | protein stability index ([3]; genetic background: wild type): 0.142 ± 0.0083

VIGEKGITDSSD [DMC1 C-terminal 12 aa]
protein stability index [3, 4]: 0.733 ± 0.023 | protein stability index ([3]; genetic background: wild type): 0.721 ± 0.018

VIWDNNTKFCWF [YGR111W C-terminal 12 aa]
protein stability index [3, 4]: 0.742 ± 0.0097 | protein stability index ([3]; genetic background: wild type): 0.73063 ± 0.00022

VIWEKVYESKTK [LSM8 C-terminal 12 aa]
protein stability index [3, 4]: 0.724 ± 0.018 | protein stability index ([3]; genetic background: wild type): 0.761 ± 0.057

VIWQERETTANK [EMI1 C-terminal 12 aa]
protein stability index [3, 4]: 0.724 ± 0.033 | protein stability index ([3]; genetic background: wild type): 0.676 ± 0.038

VKHKVVSVDEDN [MPM1 C-terminal 12 aa]
protein stability index [3, 4]: 0.681 ± 0.014 | protein stability index ([3]; genetic background: wild type): 0.6529 ± 0.001

VKKEPLNEESKP [MIA40 C-terminal 12 aa]
protein stability index [3, 4]: 0.7041 ± 0.0021 | protein stability index ([3]; genetic background: wild type): 0.679 ± 0.026

VKNSPRLLLFFI [YOL160W C-terminal 12 aa]
protein stability index [3, 4]: 0.673 ± 0.041 | protein stability index ([3]; genetic background: wild type): 0.53 ± 0.011

VKSNPQPAYTFQ [YFR012W-A C-terminal 12 aa]
protein stability index [3, 4]: 0.679 ± 0.02 | protein stability index ([3]; genetic background: wild type): 0.6969 ± 2.8e-05

VLDDAEETKESH [ATP14 C-terminal 12 aa]
protein stability index [3, 4]: 0.689 ± 0.024 | protein stability index ([3]; genetic background: wild type): 0.67 ± 0.023

VLERVSRGAGSH [COF1 C-terminal 12 aa]
protein stability index [3, 4]: 0.7039 ± 0.0025 | protein stability index ([3]; genetic background: wild type): 0.688 ± 0.036

VLLTAYKKLLTK [KEG1 C-terminal 12 aa]
protein stability index [3, 4]: 0.685 ± 0.021 | protein stability index ([3]; genetic background: wild type): 0.62079 ± 0.00024

VLMKQLDEIIRK [BUD14 C-terminal 12 aa]
protein stability index [3, 4]: 0.6982 ± 0.0046 | protein stability index ([3]; genetic background: wild type): 0.704 ± 0.058

VLPTWADKVINE [SPE4 C-terminal 12 aa]
protein stability index [3, 4]: 0.69 ± 0.0095 | protein stability index ([3]; genetic background: wild type): 0.677 ± 0.012

VMDDIISELTNE [KRE28 C-terminal 12 aa]
protein stability index [3, 4]: 0.713 ± 0.019 | protein stability index ([3]; genetic background: wild type): 0.687 ± 0.046

VNQKQPPPQSYV [YEL067C C-terminal 12 aa]
protein stability index [3, 4]: 0.7165 ± 0.00072 | protein stability index ([3]; genetic background: wild type): 0.7048 ± 0.00045

VPLESTKRQPLH [YBR053C C-terminal 12 aa]
protein stability index [3, 4]: 0.719 ± 0.0097 | protein stability index ([3]; genetic background: wild type): 0.704 ± 0.026

VPPRSASASSQR [SPC97 C-terminal 12 aa]
protein stability index [3, 4]: 0.689 ± 0.018 | protein stability index ([3]; genetic background: wild type): 0.684 ± 0.015

VPQEDDRLHKLK [AIM3 C-terminal 12 aa]
protein stability index [3, 4]: 0.701 ± 0.016 | protein stability index ([3]; genetic background: wild type): 0.765 ± 0.039

VQLIDGPEEMHR [SHO1 C-terminal 12 aa]
protein stability index [3, 4]: 0.726 ± 0.009 | protein stability index ([3]; genetic background: wild type): 0.663 ± 0.008

VQWSRPRRGDVL [LAM6 C-terminal 12 aa]
protein stability index [3, 4]: 0.7079 ± 0.0014 | protein stability index ([3]; genetic background: wild type): 0.703 ± 0.051

VRGRKSRNTSRV [REP2 C-terminal 12 aa]
protein stability index [3, 4]: 0.711 ± 0.013 | protein stability index ([3]; genetic background: wild type): 0.755 ± 0.035

VSDAMFDQGDVF [GDH1 C-terminal 12 aa]
protein stability index [3, 4]: 0.72756 ± 0.0006 | protein stability index ([3]; genetic background: wild type): 0.707 ± 0.012

VSKLNGFSFTDI [ASE1 C-terminal 12 aa]
protein stability index [3, 4]: 0.669 ± 0.0088 | protein stability index ([3]; genetic background: wild type): 0.674 ± 0.016
